Data from publication PMC9786777, “Phosphorylation of Thr9 Affects the Folding Landscape of the N-Terminal Segment of Human AGT Enhancing Protein Aggregation of Disease-Causing Mutants” (Molecules, 2022).
Numbering of substitutions follows the chain as printed. Names may count otherwise. One block for each molecule: values may come before it.

How the values were obtained:
[1] = molecular target: alanine:glyoxylate aminotransferase (AGT) NTT, 1-21 (UniProt P21549); assay: NMR translational diffusion (DOSY), self-association; details: sites T9
[2] = molecular target: the molecule itself; assay: dynamic light scattering; holo-AGT as purified, 10 µM (in subunit), Na-HEPES 20 mM NaCl 200 mM pH 7.4, 25 °C; hydrodynamic radius compared with the dimer of the crystal structure

other: hydrodynamic radius ([1]; reference: NTT-AGT P11L peptide): none in both; reference 12 ± 2
Molecule: alanine:glyoxylate aminotransferase (AGT) NTT, 1-21 (from UniProt P21549) NTT-AGT T9E-P11L peptide

other: hydrodynamic radius ([1]; reference: NTT-AGT WT peptide): none in both; reference 12 ± 2
Molecule: alanine:glyoxylate aminotransferase (AGT) NTT, 1-21 (from UniProt P21549) NTT-AGT T9E peptide

B1: alanine:glyoxylate aminotransferase (AGT) WT, holo-protein (enzyme, human, UniProt P21549 1-392, looked up)
chain: MASHKLLVTPPKALLKPLSIPNQLLLGPGPSNLPPRIMAAGGLQMIGSMSKDMYQIMDEIKEGIQYVFQTRNPLTLVISGSGHCALEAALVNVLEPGDSFLVGANGIWGQRAVDIGERIGARVHPMTKDPGGHYTLQEVEEGLAQHKPVLLFLTHGESSTGVLQPLDGFGELCHRYKCLLLVDSVASLGGTPLYMDRQGIDILYSGSQKALNAPPGTSLISFSDKAKKKMYSRKTKPFSFYLDIKWLANFWGCDDQPRMYHHTIPVISLYSLRESLALIAEQGLENSWRQHREAAAYLHGRLQALGLQLFVKDPALRLPTVTTVAVPAGYDWRDIVSYVIDHFDIEIMGGLGPSTGKVLRIGLLGCNATRENVDRVTEALRAALQHCPKKKL
modifications: PLP covalently bound to K209 (holo-protein)
notes: alanine:glyoxylate aminotransferase (AGT), human, 392 residues; also called holo-AGT
binding result [2]: binds

B2: AGT WT with the T9A mutation, holo-protein (enzyme, human, UniProt P21549 1-392, looked up)
chain: B1 chain with T9A
modifications: PLP covalently bound to K209 (holo-protein)
notes: alanine:glyoxylate aminotransferase (AGT), human, 392 residues, control mutation T9A; also called T9A (WT background)
binding result [2]: binds

B3: AGT WT with the T9E mutation, holo-protein (enzyme, human, UniProt P21549 1-392, looked up)
chain: B1 chain with T9E
modifications: PLP covalently bound to K209 (holo-protein)
notes: alanine:glyoxylate aminotransferase (AGT), human, 392 residues, phosphomimetic T9E; also called T9E (WT background)
binding result [2]: binds
